{"source": "patent US20080020978A1", "about": "(Amgen, published 2008)", "binders": {"B1": {"name": "SEQ ID NO 2 (peptide)", "peptide": "CGGGGGGGVTHRLAGLLSRSGGVVKNNFVPTNVGSKAF-NH2"}, "B2": {"name": "SEQ ID NO 3 (peptide)", "peptide": "CGGGGGGGVTHRLAGLLSRSGGVVKNNFVPTDVGPFAF-NH2"}, "B3": {"name": "SEQ ID NO 4 (peptide)", "peptide": "WVTHRLAGLLSRSGGVVKNNFVPTNVGSKAF-NH2"}, "B4": {"name": "SEQ ID NO 6 (peptide)", "peptide": "Ac-VTHRLAGLLSRSGGVVRKNFVPTDVGPFAF-NH2"}, "B5": {"name": "SEQ ID NO 7 (peptide)", "peptide": "Ac-WVTHRLAGLLSRSGGVVRKNFVPTDVGPFAF-NH2"}, "B6": {"name": "SEQ ID NO 8 (peptide)", "peptide": "Ac-WVTHRLAGLLSRSGGVVRCNFVPTDVGPFAF-NH2"}, "B7": {"name": "SEQ ID NO 9 (peptide)", "peptide": "Ac-WVTHRLAGLLSRSGGVVCNNFVPTDVGPFAF-NH2"}, "B8": {"name": "SEQ ID NO 10 (peptide)", "peptide": "Ac-WVTHRLAGLLSRSGGVCRNNFVPTDVGPFAF-NH2"}, "B9": {"name": "SEQ ID NO 11 (peptide)", "peptide": "Ac-WVTHRLAGLLSRSGGVKRNNFVPTDVGPFAF-NH2"}, "B10": {"name": "SEQ ID NO 96 (peptide)", "peptide": "WFVPTDVGPFAF-NH2"}, "B11": {"name": "SEQ ID NO 45 (peptide)", "peptide": "CGGGGGGGPTDVGPFAF-NH2"}, "B12": {"name": "SEQ ID NO 15 (peptide)", "peptide": "Ac-WVTHRLAGLLSRSGGVVRKNFVPTDVGPFAF-NH2", "modifications": "not fully specified (residue 19); printed as Ac-WVTHRLAGLLSRSGGVVRKNFVPTDVGPFAF-NH2"}, "B13": {"name": "SEQ ID NO 16 (peptide)", "peptide": "Ac-WVTHRLAGLLSRSGGVVRKNFVPTDVGPFAF-NH2", "modifications": "not fully specified (residue 19); printed as Ac-WVTHRLAGLLSRSGGVVRKNFVPTDVGPFAF-NH2"}, "B14": {"name": "SEQ ID NO 18 (peptide)", "peptide": "Ac-WVTHRLAGLLSRSGGVCRNNFVPTDVGPFAF-NH2", "modifications": "not fully specified (residue 17); printed as Ac-WVTHRLAGLLSRSGGVCRNNFVPTDVGPFAF-NH2"}, "B15": {"name": "SEQ ID NO 20 (peptide)", "peptide": "CGGGGGGGVTHRLAGLLSRSGGVVKNNFVPTDVGPFAF-NH2", "modifications": "not fully specified (residue 1); printed as CGGGGGGGVTHRLAGLLSRSGGVVKNNFVPTDVGPFAF-NH2"}, "B16": {"name": "SEQ ID NO 808 (peptide)", "peptide": "Ac-WVTHRLAGLLSRSGGVVRKNFVPTDVGPFAF-NH2"}}, "key": {"[1]": {"target": "T1, CGRP1 receptor (CRLR/RAMP1 complex) of human neuroblastoma SK-N-MC cells (human, UniProt Q16602 23-461; O60894 27-148)", "T1 sequence (Q16602 23-461, chain 1 of 2)": "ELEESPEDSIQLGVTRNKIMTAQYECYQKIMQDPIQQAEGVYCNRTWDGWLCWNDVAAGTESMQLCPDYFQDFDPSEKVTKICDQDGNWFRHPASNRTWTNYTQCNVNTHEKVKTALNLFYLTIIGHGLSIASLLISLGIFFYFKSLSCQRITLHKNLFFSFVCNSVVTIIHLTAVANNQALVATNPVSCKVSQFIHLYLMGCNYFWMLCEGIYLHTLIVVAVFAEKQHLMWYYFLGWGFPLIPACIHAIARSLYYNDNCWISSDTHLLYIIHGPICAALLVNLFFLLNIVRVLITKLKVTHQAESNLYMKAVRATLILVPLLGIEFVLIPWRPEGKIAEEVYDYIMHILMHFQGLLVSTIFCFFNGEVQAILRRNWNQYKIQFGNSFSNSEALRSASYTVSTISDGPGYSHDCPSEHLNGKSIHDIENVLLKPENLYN", "T1 sequence (O60894 27-148, chain 2 of 2)": "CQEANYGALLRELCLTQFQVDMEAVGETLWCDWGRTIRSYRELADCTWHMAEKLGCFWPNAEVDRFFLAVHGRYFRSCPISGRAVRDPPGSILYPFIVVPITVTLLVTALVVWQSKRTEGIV", "experiment": "cell-based or functional assay"}, "[2]": {"target": "T1, CGRP1 receptor (CRLR/RAMP1 complex) of …", "experiment": "cell-based or functional assay", "remark": "listed apart in the source"}, "[3]": {"target": "T1, CGRP1 receptor (CRLR/RAMP1 complex) of …", "experiment": "cell-based or functional assay", "remark": "listed apart in the source"}, "[4]": {"target": "T1, CGRP1 receptor (CRLR/RAMP1 complex) of …", "experiment": "125I-hαCGRP competition, SK-N-MC membranes"}, "[5]": {"target": "rat ortholog of the CGRP1 receptor (rat, UniProt Q63118 24-464; Q9JJ74 27-148, limits assumed)", "sequence (Q63118 24-464 limits assumed, chain 1 of 2)": "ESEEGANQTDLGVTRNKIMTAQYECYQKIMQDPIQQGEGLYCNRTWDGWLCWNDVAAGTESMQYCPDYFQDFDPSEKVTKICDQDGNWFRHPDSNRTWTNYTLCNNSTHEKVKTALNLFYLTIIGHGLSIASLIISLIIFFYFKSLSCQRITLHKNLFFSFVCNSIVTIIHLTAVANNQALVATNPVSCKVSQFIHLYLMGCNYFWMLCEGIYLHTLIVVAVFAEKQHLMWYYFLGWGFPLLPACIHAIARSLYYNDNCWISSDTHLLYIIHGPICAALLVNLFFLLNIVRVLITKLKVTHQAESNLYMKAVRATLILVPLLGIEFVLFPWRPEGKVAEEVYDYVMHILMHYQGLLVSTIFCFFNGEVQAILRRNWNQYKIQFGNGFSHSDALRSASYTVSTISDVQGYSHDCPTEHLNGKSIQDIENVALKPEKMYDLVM", "sequence (Q9JJ74 27-148 limits assumed, chain 2 of 2)": "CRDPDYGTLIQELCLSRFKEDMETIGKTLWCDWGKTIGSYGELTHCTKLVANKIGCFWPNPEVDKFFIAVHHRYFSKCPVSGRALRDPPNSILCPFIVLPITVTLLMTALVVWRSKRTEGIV", "experiment": "cell-based or functional assay"}}, "note": "Where two headings read alike, the source gives them in different places. Ends that are not written are not given here."}
{"binder": "B1", "values": [{"measurement": "IC50", "setting": "[1]", "value": 21.1, "unit": "nM"}]}
{"binder": "B2", "values": [{"measurement": "IC50", "setting": "[2]", "value": 0.72, "unit": "nM"}, {"measurement": "IC50", "setting": "[1]", "value": 0.72, "unit": "nM"}, {"measurement": "fold change in potency against SEQ ID NO:1", "setting": "[3]", "value": "> 6", "unit": "fold"}]}
{"binder": "B3", "values": [{"measurement": "IC50", "setting": "[1]", "value": 0.64, "unit": "nM"}, {"measurement": "fold change in potency against SEQ ID NO:1", "setting": "[3]", "value": "> 7", "unit": "fold"}]}
{"binder": "B4", "values": [{"measurement": "IC50", "setting": "[1]", "value": 0.7, "unit": "nM"}, {"measurement": "Ki", "setting": "[4]", "value": 0.04, "unit": "nM"}]}
{"binder": "B5", "values": [{"measurement": "IC50", "setting": "[2]", "value": 0.13, "unit": "nM"}, {"measurement": "IC50", "setting": "[1]", "value": 0.13, "unit": "nM"}]}
{"binder": "B6", "values": [{"measurement": "IC50", "setting": "[2]", "value": 0.5, "unit": "nM"}, {"measurement": "IC50", "setting": "[1]", "value": 0.5, "unit": "nM"}, {"measurement": "fold change in potency against SEQ ID NO:9", "setting": "[3]", "value": "> 4", "unit": "fold"}]}
{"binder": "B7", "values": [{"measurement": "IC50", "setting": "[2]", "value": 2.15, "unit": "nM"}, {"measurement": "IC50", "setting": "[1]", "value": 2.15, "unit": "nM"}]}
{"binder": "B8", "values": [{"measurement": "IC50", "setting": "[2]", "value": 0.36, "unit": "nM"}, {"measurement": "IC50", "setting": "[1]", "value": 0.36, "unit": "nM"}]}
{"binder": "B9", "values": [{"measurement": "IC50", "setting": "[2]", "value": 0.51, "unit": "nM"}, {"measurement": "IC50", "setting": "[1]", "value": 0.51, "unit": "nM"}]}
{"binder": "B10", "values": [{"measurement": "IC50", "setting": "[1]", "value": 21.7, "unit": "nM"}]}
{"binder": "B11", "values": [{"measurement": "IC50", "setting": "[1]", "value": 56.6, "unit": "nM"}]}
{"binder": "B12", "values": [{"measurement": "IC50", "setting": "[2]", "value": 0.42, "unit": "nM"}, {"measurement": "fold change in potency against SEQ ID NO:1", "setting": "[3]", "value": "~12", "unit": "fold"}, {"measurement": "fold loss of antagonist activity against SEQ ID NO:7", "setting": "[3]", "value": "~3", "unit": "fold"}]}
{"binder": "B13", "values": [{"measurement": "IC50", "setting": "[2]", "value": 0.39, "unit": "nM"}, {"measurement": "fold change in potency against SEQ ID NO:1", "setting": "[3]", "value": "~12", "unit": "fold"}, {"measurement": "fold loss of antagonist activity against SEQ ID NO:7", "setting": "[3]", "value": "~3", "unit": "fold"}]}
{"binder": "B14", "values": [{"measurement": "IC50", "setting": "[2]", "value": 0.16, "unit": "nM"}, {"measurement": "fold change in potency against SEQ ID NO:1", "setting": "[3]", "value": "~31", "unit": "fold"}]}
{"binder": "B15", "values": [{"measurement": "IC50", "setting": "[2]", "value": 138, "unit": "nM"}, {"measurement": "fold loss of potency against SEQ ID NO:3", "setting": "[3]", "value": "> 190", "unit": "fold"}]}
{"binder": "B16", "values": [{"measurement": "in vitro IC50 (rat ortholog; nM)", "setting": "[5]", "value": 5.4, "unit": "nM"}]}
